In patent US20250215100A1 (HARBOUR BIOMED SHANGHAI, published 2025):

Experiments:
[1] = target: T1, cynomolgus monkey CD40 on cells (cynomolgus monkey, UniProt G7PG38 21-278); test: FACS, CHO-K1/cyCD40 cells
T1 construct: also called cyCD40; CHO-K1/cyCD40
Text: (§1) Flow cytometry (FACS) was used to detect the binding ability of the CD40 antibody to cells, such as, CHO-K1/hCD40 highly expressing human CD40 (constructed by Beijing Kyinno Biotechnology), CHO-K1/cyCD40 highly expressing cynomolgus monkey CD40 (constructed by Beijing Kyinno Biotechnology) and lymphoma cell highly expressing human CD40, Raji (ATCC, #CCL-86). Specifically, the cells were digested and resuspended with complete medium (F-12K for CHO-K1 cells; and RPMI-1640 for Raji cells); and the cells were adjusted to a cell density of 1×10⁶ cells/mL. The cells were seeded in a 96-well V-bottom plate (Corning, #3894) at 100 μL/well, and the antigen binding protein to be tested at 2x final concentration was then added at 100 μL/well and mixed evenly, with the highest final concentration of the antigen binding protein of 300 nM, a total of 8 concentrations, and 5-fold concentration gradient dilution. hIgG (Crownbio, #C0002) was used as a negative control, and the positive control molecule was the molecule in Table 1-5. The cells were incubated at 4° C. for 1 hours in the dark. After the incubation, the cells were rinsed twice by adding pre-chilled PBS at 100 μL/well, and centrifuged at 500 g at 4° C. for 5 minutes, and the supernatant was discarded. Then, a fluorescent secondary antibody (goat anti-human IgG (H+L) secondary antibody, Alexa Fluor® 488 conjugate, Invitrogen, #A11013, 1:1000 dilution) was added at 100 µL/well, and the cells were incubated at 4° C. for 30 minutes in the dark. The cells were washed twice with pre-chilled PBS at 200 μL/well, and centrifuged at 500 g at 4° C. for 5 minutes, and the supernatant was discarded. Finally, the cells were resuspended in pre-chilled PBS at 200 μL/well. The fluorescence signal values were read using a BD FACS CANTOII flow cytometer or ACEA NovoCyte flow cytometer, and the data were processed and analyzed using FlowJo v10 software (FlowJo, LLC).
(§2) Data processing and graphical analysis were performed using GraphPad Prism 8 software. The binding curve of the antibody to the target cell and parameters, such as EC50 value were obtained by four-parameter nonlinear fitting.

[2] = target: T2, human CD40 on cells (human, UniProt P25942 21-277); test: cell-based or functional assay
[3] = target: T2, human CD40 on cells; test: FACS, CHO-K1/hCD40 cells
Text: as §1, §2

[4] = target: T2, human CD40 on cells; test: FACS, Raji cells
Text: as §1, §2

T1 sequence (G7PG38 entry or part of it limits assumed): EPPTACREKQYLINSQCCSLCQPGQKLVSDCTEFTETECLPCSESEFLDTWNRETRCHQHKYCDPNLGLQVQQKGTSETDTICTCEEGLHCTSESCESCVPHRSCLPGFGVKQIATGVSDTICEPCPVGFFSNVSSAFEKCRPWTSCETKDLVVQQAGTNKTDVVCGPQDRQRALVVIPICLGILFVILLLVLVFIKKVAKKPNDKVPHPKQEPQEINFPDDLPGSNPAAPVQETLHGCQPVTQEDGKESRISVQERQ
T2 sequence (P25942 21-277): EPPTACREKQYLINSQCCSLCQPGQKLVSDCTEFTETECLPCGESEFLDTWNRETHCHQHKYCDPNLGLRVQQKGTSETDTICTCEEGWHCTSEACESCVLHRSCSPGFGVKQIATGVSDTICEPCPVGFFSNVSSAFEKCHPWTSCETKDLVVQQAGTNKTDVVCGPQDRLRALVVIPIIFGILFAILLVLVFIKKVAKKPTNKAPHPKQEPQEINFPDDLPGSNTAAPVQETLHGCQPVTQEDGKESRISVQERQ

B1: PR006504 (antibody, human IgG1, kappa, V domains shown)
VH: QVQLVQSGAEVKKPGASVKVSCKASGYTFAGYYMYWVRQAPGQGLEWMGWINPDSGAPTYAQKFQGRVTMTRDTSISTAYMELSRLRSDDTAVYYCAREKIYYGSGNYYPSFDYWGQGTLVTVSS
VL: DIQLTQSPSFLSASVGDRVTITCRASQGISSYLAWYQQKPGKAPKLLIYAASTLQSGVPSRFSGSGSGTEFTLTISSLQPEDFATYYCQQLVSYPWTFGQGTKVEIKR
notes: PR003379 variant L:N92V; human IgG1 L234A, L235A, G237A
EC50 [1]: 3.71 nM
Maximum MFI [1]: 51000 MFI
EC50 (nM), crosslinked, HEK293-hCD40-NFkB reporter [2]: 0.157 nM
EC50 (nM), uncrosslinked, HEK293-hCD40-NFkB reporter [2]: 0.708 nM
Fold (EC50 in the absence of crosslinking/EC50 in the presence of crosslinking) [2]: 4.5 fold
Maximum fold (fold), crosslinked [2]: 5.21 fold
Maximum fold (fold), uncrosslinked [2]: 4.7 fold
EC50 [3]: 4.87 nM
Maximum MFI [3]: 86000 MFI
EC50 [4]: 0.35 nM
Maximum MFI [4]: 12200 MFI

B2: PR006515 (antibody, human IgG1, kappa, V domains shown)
VH: QVQLVQSGAEVKKPGASVKVSCKASGYTFAGYYMYWVRQAPGQGLEWMGWINPDSGAPTYAQKFQGRVTMTRDTSISTAYMELSRLRSDDTAVYYCAREKIYYGSGNYYPSFDYWGQGTLVTVSS
VL: DIQLTQSPSFLSASVGDRVTITCRASQGISSYLAWYQQKPGKAPKLLIYAASTLQSGVPSRFSGSGSGTEFTLTISSLQPEDFATYYCQQLNMYPWTFGQGTKVEIKR
notes: PR003379 variant L:S93M; human IgG1 L234A, L235A, G237A
EC50 [1]: 3.75 nM
Maximum MFI [1]: 50600 MFI
EC50 (nM), crosslinked, HEK293-hCD40-NFkB reporter [2]: 0.0669 nM
EC50 (nM), uncrosslinked, HEK293-hCD40-NFkB reporter [2]: 0.268 nM
Fold (EC50 in the absence of crosslinking/EC50 in the presence of crosslinking) [2]: 4.01 fold
Maximum fold (fold), crosslinked [2]: 4.91 fold
Maximum fold (fold), uncrosslinked [2]: 4.54 fold
EC50 [3]: 4.59 nM
Maximum MFI [3]: 86300 MFI
EC50 [4]: 0.322 nM
Maximum MFI [4]: 8900 MFI

B3: PR006510 (antibody, human IgG1, kappa, V domains shown)
VH: QVQLVQSGAEVKKPGASVKVSCKASGYTFAGYYMYWVRQAPGQGLEWMGWINPDSGAPTYAQKFQGRVTMTRDTSISTAYMELSRLRSDDTAVYYCAREKIYYGSGNYYPSFDYWGQGTLVTVSS
VL: DIQLTQSPSFLSASVGDRVTITCRASQGISSYLAWYQQKPGKAPKLLIYAASTLQSGVPSRFSGSGSGTEFTLTISSLQPEDFATYYCQQLNRYPWTFGQGTKVEIKR
notes: PR003379 variant L:S93R; human IgG1 L234A, L235A, G237A
EC50 [1]: 4.55 nM
Maximum MFI [1]: 44300 MFI
EC50 (nM), crosslinked, HEK293-hCD40-NFkB reporter [2]: 0.0423 nM
EC50 (nM), uncrosslinked, HEK293-hCD40-NFkB reporter [2]: 0.125 nM
Fold (EC50 in the absence of crosslinking/EC50 in the presence of crosslinking) [2]: 2.96 fold
Maximum fold (fold), crosslinked [2]: 4.66 fold
Maximum fold (fold), uncrosslinked [2]: 4.54 fold
EC50 [3]: 4.98 nM
Maximum MFI [3]: 83000 MFI
EC50 [4]: 0.376 nM
Maximum MFI [4]: 12400 MFI

B4: PR006511 (antibody, human IgG1, kappa, V domains shown)
VH: QVQLVQSGAEVKKPGASVKVSCKASGYTFAGYYMYWVRQAPGQGLEWMGWINPDSGAPTYAQKFQGRVTMTRDTSISTAYMELSRLRSDDTAVYYCAREKIYYGSGNYYPSFDYWGQGTLVTVSS
VL: DIQLTQSPSFLSASVGDRVTITCRASQGISSYLAWYQQKPGKAPKLLIYAASTLQSGVPSRFSGSGSGTEFTLTISSLQPEDFATYYCQQLNNYPWTFGQGTKVEIKR
notes: PR003379 variant L:S93N; human IgG1 L234A, L235A, G237A
EC50 [1]: 3.68 nM
Maximum MFI [1]: 40300 MFI
EC50 (nM), crosslinked, HEK293-hCD40-NFkB reporter [2]: 0.16 nM
EC50 (nM), uncrosslinked, HEK293-hCD40-NFkB reporter [2]: 0.815 nM
Fold (EC50 in the absence of crosslinking/EC50 in the presence of crosslinking) [2]: 5.1 fold
Maximum fold (fold), crosslinked [2]: 5.19 fold
Maximum fold (fold), uncrosslinked [2]: 4.5 fold
EC50 [3]: 4.99 nM
Maximum MFI [3]: 79400 MFI
EC50 [4]: 0.386 nM
Maximum MFI [4]: 11800 MFI
